Reference: the domain aggregation screens of Martell et al. (2025)

Assay: soluble fraction after stress (log2 fold change); higher = more stays soluble; pooled small domains, quantitative proteomics
Settings: stress: 75 degC
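Further: 20 min heating vs room temperature control held 20 min.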

Point of comparison: “HMLGVKKFGGEAVIAGNIILRQRGTKWITGSNVGIGKDHTLFAKIEGYVVFERMRGRDGQQQISIYP”, “soluble fraction (log2)” value 0.0286. Against it:
- HMLFKNASGTVVSRIQSQVDGQINIRTGSGNAPDYAFVAKPDGAVELYHNGTKQFETGSSGVLLP — lower, -0.406
- HMLFQQPATMIGKIGVAMSDLRPSGKIKIDDEWYDGQSEGDYILKGQEIIVVQVMNAYLIVRL — within 0.2 log units, 0.0841
- HMLFRGNGFNTLYDKQLRITQQGEFKDGRLWDGKYYRYSKAGELVRIEIYEQGRYAGNGVITDEDKA — lower, -1.06
- HMLFSDSDLKSLLDKDISYVIEMYKAASKEQKRIISDMVAQKVMEKKYIDANILIQLGELTGINYMDL — lower, -1.33
- HMLFSEKLKQAMQDLHLNQIQVVGLTGKSKGSISQYISGKQVPSEATQRDIAISLGLEENYFSKK — higher, 0.701
- HMLFYSDLVRLISFAEATLGKNEFETWYMSHHQGMKYTEIAIALGISVRTVEDRIARTKNHFRKI — lower, -0.68
- HMLGAGFDSDLTARENIFLNGALLGHSRAVMRGYYDDIVNFAELHDFMDVPVKNFSSGMTSRLAFSIATIG — higher, 0.236
- HMLGARIAALRRQAGMNQGELAKKLGISPSTVGMYEQGRREPSAEMLVRLAEAFSVSTDFLLT — lower, -1.1
- HMLGERIRRLRKEMGMSVTELARRVKTSPSYISEIEKGEKTPSLNLLVRIASELRTGIDYLTGL — lower, -0.922
- HMLGIGANVQKIAQERKISLKELSRRAGIPYTTIYNMVKRDSSRVSPENLQKLADALGVEIGKLYG — lower, -0.24
- HMLGSQQAYTDALRLTGLPVDIEVIESDRLPFLIPMRYSLDQHLIEVNVRYPDTRAIRVQQMVEELFHA — lower, -0.631
- HMLGYQALASAFRSKVEAGIWPIGEAIPSEARLSKEYGVAVGTIRQAIAELAEEGILIKRHGKSTMVSSG — lower, -1.49
- HMLHEFSGVVVSILADTGPSTLKQLHRSLISSDVKMDEKELMQILDEALSSGSVTSHRKGRYLYYSANK — lower, -1.71
- HMLHIKKGDTVIVNAGESKGQQGKVLEVLVGKERAIVEGVNMVSKHTKPNAKNPQGGIVKKEAPIHISNLQ — within 0.2 log units, 0.154
- HMLHPLLWAVDEPTPVTVRTRPEYVPDVVRWLMQPESQREHDGVVDLRYTVTHRAAFRSRIYVLGTRVTIP — within 0.2 log units, 0.114
- HMLIADADSLRKQIETVLANAPNEVAAYRGGKETLMGWFVGQIMRATGGKADPKLTREILAELLQ — within 0.2 log units, -0.00264
- HMLIADSDALRSQIESILNGNPNEVASFRAGKESLMGWFVGQVMRSTGGKADPKRTRELLQELLTK — within 0.2 log units, -0.0249
- HMLIDSEILKKTNKITIFLIYAFFSEYLINKEKKKILIGEYIKLSKDFLTIEEVKYFNHLLDDISK — within 0.2 log units, -0.131
- HMLIDSNNYFFYKVKPKEGFYSLQKKLGVNRSEIEKHNPSLINEVLKEGMILKIPKYLLNFDLN — lower, -1.08
- HMLILTWNYPYEYPMMMRSFLQEIGISRTFLAHIKSNGELLINGRHEIVLKTLQPGDVLTMVIPPSG — lower, -2.13
- HMLINLGPRIRKERRSKGISQSDFSKNLGISASYLNLLENGRRTLTVPLLIKIGNELNLSLKDL — within 0.2 log units, -0.125
- HMLISAESVKRRLEMIRHLILLGDYEDVTAQVIKLNPAANEYKLTPIIEELNGGKYQEALEKINSYLSKF — lower, -0.839
- HMLISKNLLGFTIKNTSGVTFGTLKDIMWLPSNDVYVIDNNGKEYLIPVISEIVKSINYDKGSITIFP — lower, -0.4
- HMLKASEVLPYVFTDKFFIDDLNLKQDQILGFLEYIDSKLPSQKLLQVSQQFQLIDFLINESKNYKNQ — lower, -1.68
- HMLKDININVTGLDQISNAKLINNLNLLKMNNLFFLDEKKIKKILNSNNLIEKFFIFKKYPSTLDIKVYKT — within 0.2 log units, 0.177
- HMLKHNLLSELSRIEGVGAVKRKALMDKFGTVENIKRASEEELSEVAGIGPTLARTIKEQMNKDE — within 0.2 log units, -0.133
- HMLKKRKPMSGVGVIVKGMLTGTVTGTDGSYALKARPNDELSFSFLGYKTQEVFVGSKSTIDITLVDEA — within 0.2 log units, -0.111
- HMLKLEEIQPNATVRGILPDALITVVNVKWFGSEALELTYKDTSGRVANQLLFRDDQPRLEIVE — lower, -1.98
- HMLKLEPYTINEINSLQELYDLGNVRALETLISIYKDKNQVYDTRFYVLDILSKYDNPLIQEALEESITN — lower, -1.39
- HMLKLPVEYLNLKYQLMHATSLDKPNNLMKLDEKLGKIIDVYYDDLPVDEQRVVDILQSKLYSY — lower, -0.489
- HMLKLYILTDGKNYVMDDPIHPGRVMYSTSPVNAKKFTFKQARALLNNKSKKLSWIRSFNMVDDSSGEKI — lower, -1.44
- HMLKREDEVIVVAGKDKGKRGTITQLVGDDRVIVAGVNMVKRHTKPNPNLGQPGGIVEREASLHISNV — higher, 0.244
- HMLKVHPRDQEENRLLLLKGERLYEESTGDTRVMIDMWLRKFEEALNSRSRENIEDARRELKEQLAELDN — lower, -0.185
- HMLLAPLRLGAAPDIKAQAPLATILARHNGEMEAKDLWQRFGGEIDAFYLQLKTEVAHGWIVEPEPA — lower, -3.01
- HMLLELINLQVKILENEELKIIGKVIDLENEKNNLLVIELLKDQKKVLVPFVKEIVPLIDIKNNFIMINPP — lower, -0.903
- HMLLFNVADIVKRAKRVLNFKTDAELAAYLGVSRPTLSNWIARNGIDFPLLLEKLKEIDYNWLLVGKGKPE — lower, -2.74
- HMLLGPDALTNRELDVLALLERRLSNKEIGALLYISPRTVKRHTINIYQKLHVNNRRAAVAQAKALGLMPD — lower, -1.9
- HMLLKIRPDLDGNEIMKLLNIAAGPNVGKAYEHLLELRLEHGPLGKERAEQELMNWWSARSQ — lower, -0.898
- HMLLNSLIDTLAAEKATVVPGTEVFKLYDTYGFPWELTEEIASERGFTIDHEGFEAAMKEQRERAREARV — within 0.2 log units, -0.104
- HMLLNTSQLKELYNRYDKKNSSLISIPFSAISDEPLKFYKWYAALFQIELNVKAFADVDSKQIIIYKGTK — lower, -3.37
- HMLLRSEDAIELGKSQLEDALAPYKIETLDTGTVQQLLDSLKLNSLESLYQEIGLGNRMSTIIAHRLLGE — lower, -0.216
- HMLLSFYGTYGNVKLTGKELEDLQKEFPFDYQARIDRLSAYMESSGRKYHSHFATIRSWAQDDAKKN — lower, -2
- HMLLSYDIAEYIEKYIHEHGLQPGDRLPTERELAAQLDITRVSVRQGYKRLLDQGVIRSENGYYVNPPR — lower, -1.68
- HMLLTDGLERRIDGDKNLHIRISLPMLVKGQIKLAKSGNNESTVKGIFKIESYPGSHPRDVVTEIIEG — lower, -0.236
- HMLLTHPKRVFTYELIMELVWNEDYTFYSKKAVSNHMSNLRKKLKVTPDALDYIKNIVGVGYKFEA — lower, -1.11
- HMLMKKTITHEIELLEFLKQIFPQSSTNKLRKMLSNGRIKINSEIVHKAKYKLQENDTFELLDNPT — lower, -2.61
- HMLNEIMDTINKYISDKRNNKVAQNILSAALDELNSQIRVGLKDLNPHSIEEFKENVINSPYIEFEQG — within 0.2 log units, -0.0112
- HMLNEWIDYIDEHIKEELTAKNLATVFGYSERHFRNVFQIYYDIKLNDYIRRRKLYFAAQELKKG — lower, -1.27
- HMLNMSVYDKQLLRAVENNPFISQRELARELHWNVDRVKYYMKKWKDKGGLRHVGSSHKGYWEVLVRIEEK — lower, -0.891
- HMLNNVDIHKLSEDLLLYKIKIDIKLKNIEDAISTIDYFSNKFPNSDLMPYVIYEKKLIDNI — lower, -2.59
- HMLNPLLLPFVEAEDFQVKLEILAAMEGKVGEEDLDILYEALDLPKMTGNIEEQIHSIKQYIEMRK — lower, -1.18
- HMLNPVEKLLLLSQLYIGRLKGSFVVKEKHHKSTILGEVRELSPEEITLKTDEGYRLIRVDDILTIQL — lower, -4.44
- HMLNSLDATQRLKLNKDGVVVFNFGKYVDQSVIDIFKKEKGYYNWMMSKDFSQQVKNIITKIYQEEIIG — lower, -1.08
- HMLNTLGADIRALRKARGLTLAELAQTLGRSVGWLSQVERDMSEPGINDLRDLARALDVSISSLFG — lower, -1.8
- HMLNWINSDVLERFNSLTKEKQKAIVADTETRLNGLSQARFKVAKSSSNERLIAEFAIEINEAIMRAAAL — lower, -2.11
- HMLPADETEARVLNVLGSEPLHVDEIRNQADLPIEKISATLAMMELKGMVRQVGGMNYVAMR — within 0.2 log units, 0.0378
- HMLPANGEAIYHYLASGAIKGVGPVTAQRIVDKFGEDTFDVLENNPLWLAEIKGITRKTAENIGAAFAAQF — higher, 0.631
- HMLPDAESFSYEVPYTKGDGGTYNYEGKIKAQNADAARDEIIRQAQVYFQMNPQFTPDYPSTTITSLD — within 0.2 log units, 0.14
- HMLPDDDMLLNILTKLLIDKQFVINSHEIFDFIIKRANRSYEEMFILVNKLDQLSLEKKRQLTIPLIKEI — lower, -0.881
- HMLPDLQESIDELLNIVDQRLNTSFEELVSGVNTTEKAIAFFLALLETIKWGFIKAEQTNNENKINIEKNY — within 0.2 log units, -0.146
- HMLPDPIYEAFMMASDLGIVVRNGPQYAYPDKETGEVLYKALGREKFLQLMKDNDGLLTSIETEIRSM — lower, -1.61
- HMLPKTVTLIDPVSGVAKTVTWVPALTLYSARRKAGLNRVPNTATIDRGGRELTGKRGSTLQPGDVVRW — lower, -0.664
- HMLPPLGDQELELLRFITESAPITVREAAESYGKDRGLARTTVLTMMERLRAKGYLTRSESGAANEYSP — lower, -0.64
- HMLPPVFLTIDANENVIVRKDGEPVQTLNKFELGAFARSQAENSAEQPVVLAADKSIKYEVVMEVI — within 0.2 log units, 0.192
- HMLPRLVLSPGTEVLATVMGKYENGMSLVKISSHLFAMDLPSRVQVGDSLRMTFLHQDARPTFALA — lower, -1.11
- HMLPSDLDEGNRRRQLIEGAARLFRAKGFDGTSTRDIAAAAGMRSGSPFYHFDSKNALLYVVVQEGM — within 0.2 log units, -0.0127
- HMLPSWLPTDAWEAFLEARVAMKARPTERAKGLLLGELSKLVSQGQDARAVLEQSVQRGWRGLFPVK — lower, -1.76
- HMLPSWPGVSEFEVARLLRRGRARGSLTLDEVIDVVRDAELTSELIAGIRSSLRAEGIDFEET — lower, -0.731
- HMLPTLSLSVKIYKGEGDIALDLEEMVKAFDQLNFGSYPFSEKGVHGTNIVIRGNDKKHMEEAEDKVRSLT — lower, -0.438
